Earlier results as cited in publication PMC8329052.

Biological target: SARS-CoV-2 spike RBD RBD (SARS-CoV-2) (UniProt P0DTC2)

For “SBP1 (ACE2 alpha1 helix 23-mer peptide) 21-43 (from UniProt Q9BYF1)”, the Kd is listed as 47 nM.
